In patent US20150274807A1 (SUZHOU ALPHAMAB, published 2015):

B1: ScFv-Fc protein E356K/K439E (Fc fusion)
chain: EVQLLESGGGVVQPGRSLRLSCIASGFTFSSYPMTWVRQAPGKGLEWVASISYDGSYKYKADSMKGRLTISRDNSKNTLYLEMNSLTAEDTAVYYCARTAFFNAYDFWGQGTLVTVSSASTKGPSVGGGGSGGGGSEIVMTQSPATLSVSPGERATLSCRASQSVRSNLAWYQQKPGQAPRLLIYAASTRATGIPARFSGSGSGTEFTLTISSLQSEDFAVYYCQQYNEWFRTSGQGTKVEIKRDKTHTCPPCPAPELLGGPSVFLFPPKPKDTLMISRTPEVTCVVVDVSHENPEVKFNWYVDGVEVHNAKTKPREEQYNSTYRVVSVLTVLHQDWLNGKEYKCKVSNKALPAPIEKTISKAKGQPREPQVYTLPPSRKEMTKNQVSLTCLVKGFYPSDIAVEWESNGQPENNYKTTPPVLDSDGSFFLYSKLTVDKSRWQQGNVFSCSVMHEALHNHYTQESLSLSPGK
notes: Monomer chain; also called scFv-Fcmix1; ScFv-Fc of mutation combination 6
B2: ScFv-Fc protein E357K/K370E (Fc fusion)
chain: EVQLLESGGGVVQPGRSLRLSCIASGFTFSSYPMTWVRQAPGKGLEWVASISYDGSYKYKADSMKGRLTISRDNSKNTLYLEMNSLTAEDTAVYYCARTAFFNAYDFWGQGTLVTVSSASTKGPSVGGGGSGGGGSEIVMTQSPATLSVSPGERATLSCRASQSVRSNLAWYQQKPGQAPRLLIYAASTRATGIPARFSGSGSGTEFTLTISSLQSEDFAVYYCQQYNEWFRTSGQGTKVEIKRDKTHTCPPCPAPELLGGPSVFLFPPKPKDTLMISRTPEVTCVVVDVSHENPEVKFNWYVDGVEVHNAKTKPREEQYNSTYRVVSVLTVLHQDWLNGKEYKCKVSNKALPAPIEKTISKAKGQPREPQVYTLPPSREKMTKNQVSLTCLVEGFYPSDIAVEWESNGQPENNYKTTPPVLDSDGSFFLYSKLTVDKSRWQQGNVFSCSVMHEALHNHYTQKSLSLSPGK
notes: Monomer chain; also called ScFv-Fc of mutation combination 5
B3: Fc protein E357K/K370E (other)
chain: GSGGGDKTHTCPPCPAPELLGGPSVFLFPPKPKDTLMISRTPEVTCVVVDVSHENPEVKFNWYVDGVEVHNAKTKPREEQYNSTYRVVSVLTVLHQDWLNGKEYKCKVSNKALPAPIEKTISKAKGQPREPQVYTLPPSREKMTKNQVSLTCLVEGFYPSDIAVEWESNGQPENNYKTTPPVLDSDGSFFLYSKLTVDKSRWQQGNVFSCSVMHEALHNHYTQKSLSLSPGK
notes: Monomer chain; also called Fc of mutation combination 3
B4: Fc protein E356K/K439E (other)
chain: GSGGGDKTHTCPPCPAPELLGGPSVFLFPPKPKDTLMISRTPEVTCVVVDVSHENPEVKFNWYVDGVEVHNAKTKPREEQYNSTYRVVSVLTVLHQDWLNGKEYKCKVSNKALPAPIEKTISKAKGQPREPQVYTLPPSRKEMTKNQVSLTCLVKGFYPSDIAVEWESNGQPENNYKTTPPVLDSDGSFFLYSKLTVDKSRWQQGNVFSCSVMHEALHNHYTQESLSLSPGK
notes: Monomer chain; also called Fc of mutation combination 2
B5: Fc protein K392D/K409D/D399K (other)
chain: GSGGGDKTHTCPPCPAPELLGGPSVFLFPPKPKDTLMISRTPEVTCVVVDVSHENPEVKFNWYVDGVEVHNAKTKPREEQYNSTYRVVSVLTVLHQDWLNGKEYKCKVSNKALPAPIEKTISKAKGQPREPQVYTLPPSREEMTKNQVSLTCLVKGFYPSDIAVEWESNGQPENNYDTTPPVLKSDGSFFLYSDLTVDKSRWQQGNVFSCSVMHEALHNHYTQKSLSLSPGK
notes: Monomer chain; EU numbering is K392D/K409D/D399K; also called Fc-mix1; Fc of mutation combinations 1, 5 and 6
B6: Fc protein E357K/K370E/K392D/K409D/D399K (other)
chain: GSGGGDKTHTCPPCPAPELLGGPSVFLFPPKPKDTLMISRTPEVTCVVVDVSHENPEVKFNWYVDGVEVHNAKTKPREEQYNSTYRVVSVLTVLHQDWLNGKEYKCKVSNKALPAPIEKTISKAKGQPREPQVYTLPPSREKMTKNQVSLTCLVEGFYPSDIAVEWESNGQPENNYDTTPPVLKSDGSFFLYSDLTVDKSRWQQGNVFSCSVMHEALHNHYTQKSLSLSPGK
notes: Monomer chain; also called Fc-mix13; Fc of mutation combination 4
B7: Fc protein D399K/K409D (other)
chain: GSGGGDKTHTCPPCPAPELLGGPSVFLFPPKPKDTLMISRTPEVTCVVVDVSHENPEVKFNWYVDGVEVHNAKTKPREEQYNSTYRVVSVLTVLHQDWLNGKEYKCKVSNKALPAPIEKTISKAKGQPREPQVYTLPPSREEMTKNQVSLTCLVKGFYPSDIAVEWESNGQPENNYKTTPPVLKSDGSFFLYSDLTVDKSRWQQGNVFSCSVMHEALHNHYTQKSLSLSPGK
notes: Monomer chain; also called Fc of mutation combination 8
B8: Fc protein K392D/D399K (other)
chain: GSGGGDKTHTCPPCPAPELLGGPSVFLFPPKPKDTLMISRTPEVTCVVVDVSHENPEVKFNWYVDGVEVHNAKTKPREEQYNSTYRVVSVLTVLHQDWLNGKEYKCKVSNKALPAPIEKTISKAKGQPREPQVYTLPPSREEMTKNQVSLTCLVKGFYPSDIAVEWESNGQPENNYDTTPPVLKSDGSFFLYSKLTVDKSRWQQGNVFSCSVMHEALHNHYTQKSLSLSPGK
notes: Monomer chain; also called Fc of mutation combination 7

Tests used:
[1] = biological target: B5; test: co-transfection 1:1 in 293H, protein A pull-down, non-reducing SDS-PAGE densitometry
Procedure: (§1) The expression vectors harbor 8 mutation combinations in step 3 were separately transfected with PEI into suspension adapted 293H cells (ATCC CRL-1573), the co-transfection ratio of plasmids pcDNA3.1-zeo-ScFv-Fc to pcMVβ-SP-Fc was 1:1, and after 3-4 days, cell culture supernatant was collected. Immuno precipitation was performed with protein A agarose resin, and the content of the homodimer proteins or antibodies (ScFv-Fc/ScFv-Fc and Fc/Fc) and the heterodimer protein or antibody (ScFv-Fc/Fc) was detected by SDS-PAGE under non-reducing conditions. Gel-Pro professional image analysis software (Media Cybernetics company) was used for analyzing the proportion of the homodimer proteins or antibodies (ScFv-Fc/ScFv-Fc and Fc/Fc) and the heterodimer protein or antibody (ScFv-Fc/Fc). […] In addition, when E357K/K370E/K392D/K409D/D399K (mutation combination 4) was introduced on Fc, the stability should be further investigated because of the appearance of Fc monomers (about 6%).

[2] = biological target: the molecule itself; test: co-transfection 1:1 in 293H, protein A pull-down, non-reducing SDS-PAGE densitometry; co-expressed with Fc K392D/K409D/D399K
Procedure: as §1

[3] = biological target: the molecule itself; test: co-transfection 1:1 in 293H, protein A pull-down, non-reducing SDS-PAGE densitometry; co-expressed with ScFv-Fc WT
Procedure: as §1

Binder | proportion of ScFv-Fc/Fc heterodimer on SDS-PAGE [1] | proportion of ScFv-Fc homodimer on SDS-PAGE [2] | proportion of Fc homodimer on SDS-PAGE [3]
B1 | 8.4% | 31.2% | 
B2 | 5.9% | 41.5% | 
B3 |  |  | 47.5%
B4 |  |  | 41.1%
B5 |  |  | 51.3%
B6 |  |  | 28.7%
B7 |  |  | 43.4%
B8 |  |  | 44.7%
